Target: HB-EGF receptor (UniProt Q99075)
Experiment: cell-based or functional assay

Chain of UniProt Q99075 (Q99075 63-148 limits assumed): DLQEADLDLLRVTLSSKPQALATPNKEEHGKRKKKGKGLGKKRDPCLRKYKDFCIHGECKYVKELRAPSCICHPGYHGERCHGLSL

## CRM197-Alexa488 (from UniProt P00587 26-560)
  labelling of OV90 tumor cells with CRM197-Alexa488 after 24 hours (flow cytometry, 10 µg/mL): 98.2%
  percentage of CRM197-Alexa488 uptake by OV90 tumor cells after 4 hours (flow cytometry, 10 µg/mL): 82%
  percentage of OV90 tumor cells with CRM197-Alexa488 signal after 4 hours with trypan blue quenching (intracellular): 72.7%
  percentage of OV90 tumor cells with CRM197-Alexa488 signal after 24 hours with trypan blue quenching (intracellular): 97.6%
